Laboratory results published in patent US20060067886A1, “Gastrin receptor-avid peptide conjugates” (priority 1997, published 2006).

Experiments:
[1] = Biodistribution of radiometal-DOTA-BBN conjugates in CF1 normal mice; settings: CF-1, mouse, in vivo, iv, total radioactivity; for tissue uptake dose at 1 h / dose excreted at 1 h: Avg % ID; for dose excreted at 1 h: Urine; for tissue uptake at 1 h: Avg % ID/gm
in vivo = settings: SCID, mouse, iv, 4 uCi, total radioactivity
Protocol: In vivo pharmacokinetic studies in human tumor bearing SCID mice. […] The xenograft models were produced by bilateral flank inoculation of 5×10^6 cells (PC-3 or MDA-MB-231 cells) per site. Four to six weeks post inoculation, palpable tumors were observed. At this point, the mice were injected with 4 μCi of the complex in 100/μL of isotonic saline via the tail vein. The mice were euthanized and tissues and organs were excised from the animals at selected times post-injection (p.i.), including 15 minutes, 30 minutes, 1 hour, 4 hours, 24 hours, 48 hours, and 72 hours p.i. Subsequently, the tissues and organs were weighed and counted in a NaI well counter and the percent injected dose (% ID) and % ID/g of each organ or tissue calculated.

[2] = Blood, 1 hour, Blocking (excess BBN)
[3] = Kidney, 1 hour, Blocking (excess BBN)
[4] = L. Intestine, 1 hour, Blocking (excess BBN)
[5] = Liver, 1 hour, Blocking (excess BBN)
[6] = Lung, 1 hour, Blocking (excess BBN)
[7] = Muscle, 1 hour, Blocking (excess BBN)
[8] = Pancreas, 1 hour post-injection
[9] = Pancreas, 1 hour, Blocking (excess BBN)
[10] = S. Intestine, 1 hour, Blocking (excess BBN)
[11] = Spleen, 1 hour, Blocking (excess BBN)
[12] = Stomach, 1 hour, Blocking (excess BBN)

With `CSCC[C@H](NC(=O)[C@H](CC(C)C)NC(=O)[C@H](Cc1cnc[nH]1)NC(=O)CNC(=O)[C@@H](NC(=O)[C@H](C)NC(=O)[C@H](Cc1c[nH]c2ccccc12)NC(=O)[C@H](CCC(N)=O)NC(=O)CCCCCCCNC(=O)CN1CCN(CC(=O)O)CCN(CC(=O)O)CCN(CC(=O)O)CC1)C(C)C)C(N)=O` [111In-DOTA-8-Aoc-BBN[7-14]NH2, metal not drawn] the tissue uptake dose at 1 h [1, 2] was 0.98 ± 0.23 %ID, the tissue uptake dose at 1 h ([1]; Carcass, 1 hour, Blocking (excess BBN)) was 7.42 ± 1.35 %ID and the tissue uptake dose at 1 h ([1]; Heart, 1 hour post-injection) was 0.01 %ID. It also gave a tissue uptake dose at 1 h ([1]; Kidney, 1 hour post-injection) of 1.04 ± 0.12 %ID, a tissue uptake dose at 1 h [1, 3] of 0.92 ± 0.13 %ID and a tissue uptake dose at 1 h ([1]; L. Intestine, 1 hour post-injection) of 3.02 ± 0.33 %ID. It also gave a tissue uptake dose at 1 h [1, 4] of 0.15 ± 0.05 %ID, a tissue uptake dose at 1 h [1, 5] of 0.87 ± 0.1 %ID and a tissue uptake dose at 1 h [1, 6] of 0.17 ± 0.05 %ID. For the same compound, the tissue uptake dose at 1 h ([1]; Muscle, 1 hour post-injection) was 0.02 ± 0.01 %ID, the tissue uptake dose at 1 h [1, 7] was 0.02 ± 0.01 %ID and the tissue uptake dose at 1 h [1, 8] was 10.8 ± 0.78 %ID. The tissue uptake dose at 1 h [1, 9] was 0.19 ± 0.03 %ID, the tissue uptake dose at 1 h ([1]; S. Intestine, 1 hour post-injection) was 6.58 ± 1.1 %ID and the tissue uptake dose at 1 h [1, 10] was 1.65 ± 0.19 %ID. It also gave a tissue uptake dose at 1 h ([1]; Spleen, 1 hour post-injection) of 0.17 ± 0.04 %ID, a tissue uptake dose at 1 h [1, 11] of 0.02 ± 0.03 %ID and a tissue uptake dose at 1 h ([1]; Stomach, 1 hour post-injection) of 0.5 ± 0.06 %ID. For the same compound, the tissue uptake dose at 1 h [1, 12] was 0.16 ± 0.12 %ID, the dose excreted at 1 h ([1]; 1 hour post-injection) was 71.6 ± 1.82% and the dose excreted at 1 h ([1]; 1 hour, Blocking (excess BBN)) was 88.2 ± 1.79%. It also gave a tissue uptake at 1 h [1, 2] of 0.49 ± 0.15 %ID/g, a tissue uptake at 1 h ([1]; Heart, 1 hour, Blocking (excess BBN)) of 0.16 ± 0.06 %ID/g and a tissue uptake at 1 h [1, 3] of 2.19 ± 0.47 %ID/g. For the same compound, the tissue uptake at 1 h [1, 4] was 0.16 ± 0.06 %ID/g, the tissue uptake at 1 h [1, 5] was 0.54 ± 0.13 %ID/g and the tissue uptake at 1 h [1, 6] was 0.74 ± 0.17 %ID/g. The tissue uptake at 1 h ([1]; Muscle, 1 hour post-injection) was 0.12 ± 0.05 %ID/g, the tissue uptake at 1 h [1, 7] was 0.11 ± 0.07 %ID/g and the tissue uptake at 1 h [1, 8] was 27 ± 3.97 %ID/g. For the same compound, the tissue uptake at 1 h [1, 9] was 0.43 ± 0.1 %ID/g, the tissue uptake at 1 h [1, 10] was 0.95 ± 0.18 %ID/g and the tissue uptake at 1 h [1, 11] was 0.15 ± 0.16 %ID/g. It also gave a tissue uptake at 1 h [1, 12] of 0.32 ± 0.34 %ID/g, a tissue uptake at 1 h (in vivo; blood) of 0.35 ± 0.08 %ID/g and a tissue uptake at 4 h (in vivo; blood) of 0.08 ± 0.1 %ID/g. The tissue uptake at 24 h (in vivo; blood) was 0.02 ± 0.03 %ID/g, the tissue uptake at 1 h (in vivo; heart) was 0.15 ± 0.11 %ID/g and the tissue uptake at 24 h (in vivo; heart) was 0.08 ± 0.06 %ID/g. The tissue uptake at 1 h (in vivo; kidney) was 3.29 ± 0.56 %ID/g, the tissue uptake at 4 h (in vivo; kidney) was 1.76 ± 0.15 %ID/g and the tissue uptake at 24 h (in vivo; kidney) was 0.98 ± 0.28 %ID/g. It also gave a tissue uptake at 1 h (in vivo; large intestine) of 5.14 ± 0.42 %ID/g, a tissue uptake at 4 h (in vivo; large intestine) of 5.58 ± 1.26 %ID/g and a tissue uptake at 24 h (in vivo; large intestine) of 2.76 ± 0.49 %ID/g. It also gave a tissue uptake at 1 h (in vivo; liver) of 0.31 ± 0.04 %ID/g, a tissue uptake at 4 h (in vivo; liver) of 0.15 ± 0.09 %ID/g and a tissue uptake at 24 h (in vivo; liver) of 0.07 ± 0.02 %ID/g. It also gave a tissue uptake at 1 h (in vivo; lung) of 0.31 ± 0.09 %ID/g, a tissue uptake at 4 h (in vivo; lung) of 0.06 ± 0.06 %ID/g and a tissue uptake at 24 h (in vivo; lung) of 0.05 ± 0.05 %ID/g. The tissue uptake at 1 h (in vivo; muscle) was 0.08 ± 0.05 %ID/g, the tissue uptake at 4 h (in vivo; muscle) was 0.06 ± 0.13 %ID/g and the tissue uptake at 1 h (in vivo; pancreas) was 23.4 ± 4.99 %ID/g. The tissue uptake at 4 h (in vivo; pancreas) was 17.9 ± 5 %ID/g, the tissue uptake at 24 h (in vivo; pancreas) was 5.06 ± 0.77 %ID/g and the tissue uptake at 1 h (in vivo; small intestine) was 5.15 ± 0.19 %ID/g. The tissue uptake at 24 h (in vivo; small intestine) was 0.9 ± 0.14 %ID/g, the tissue uptake at 1 h (in vivo; spleen) was 0.57 ± 0.1 %ID/g and the tissue uptake at 4 h (in vivo; spleen) was 0.48 ± 0.25 %ID/g. For the same compound, the tissue uptake at 24 h (in vivo; spleen) was 0.21 ± 0.07 %ID/g, the tissue uptake at 4 h (in vivo; stomach) was 0.27 ± 0.08 %ID/g and the tissue uptake at 24 h (in vivo; stomach) was 0.33 ± 0.1 %ID/g. It also gave a tissue uptake at 1 h (in vivo; tumor (Tumor 1)) of 0.91 ± 0.16 %ID/g, a tissue uptake at 4 h (in vivo; tumor (Tumor 1)) of 0.36 ± 0.13 %ID/g and a tissue uptake at 24 h (in vivo; tumor (Tumor 1)) of 0.22 ± 0.07 %ID/g. For the same compound, the tissue uptake at 1 h (in vivo; tumor (Tumor 2)) was 0.74 ± 0.27 %ID/g, the tissue uptake at 4 h (in vivo; tumor (Tumor 2)) was 0.4 ± 0.23 %ID/g and the tissue uptake at 24 h (in vivo; tumor (Tumor 2)) was 0.24 ± 0.15 %ID/g. The tissue uptake at 1 h (in vivo; tumor) was 0.83 ± 0.23 %ID/g, the dose excreted at 1 h (in vivo; urine) was 72.1 ± 3.55% and the dose excreted at 4 h (in vivo; urine) was 84.3 ± 2.09%. It also gave a dose excreted at 24 h (in vivo; urine) of 83.8 ± 1.41%.
